Changes are numbered by the printed parent chain. Each block holds one binder with its values, some of them ahead of it.
How the values were obtained:
[1] = target: T1, interleukin-2 alpha receptor (SYMANSIS, #4102H) to which a human immunoglobulin Fc region was linked (UniProt P01589 22-213, limits assumed); test: SPR (Biacore T200); receptor-Fc captured on anti-human Ig CM5 chip
T1 construct: Bought receptor-Fc, captured on anti-human immunoglobulin antibody; also called IL-2Rα; CD25; not shown: human immunoglobulin Fc region
T1 sequence (looked up): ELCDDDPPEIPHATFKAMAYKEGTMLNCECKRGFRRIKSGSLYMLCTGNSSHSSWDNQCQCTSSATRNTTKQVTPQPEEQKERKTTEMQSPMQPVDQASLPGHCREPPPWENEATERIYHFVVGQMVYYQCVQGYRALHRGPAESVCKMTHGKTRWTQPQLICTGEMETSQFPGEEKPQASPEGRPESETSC

[2] = target: T2, interleukin-2 beta receptor (SYMANSIS, #4122H) to which a human immunoglobulin Fc region was linked (UniProt P14784 27-239, limits assumed); test: SPR (Biacore T200); receptor-Fc captured on anti-human Ig CM5 chip, analog flowed; relative to analog 1 = 100%
T2 construct: Bought receptor-Fc, captured on anti-human immunoglobulin antibody; also called IL-2Rβ; CD122; not shown: human immunoglobulin Fc region
T2 sequence (looked up): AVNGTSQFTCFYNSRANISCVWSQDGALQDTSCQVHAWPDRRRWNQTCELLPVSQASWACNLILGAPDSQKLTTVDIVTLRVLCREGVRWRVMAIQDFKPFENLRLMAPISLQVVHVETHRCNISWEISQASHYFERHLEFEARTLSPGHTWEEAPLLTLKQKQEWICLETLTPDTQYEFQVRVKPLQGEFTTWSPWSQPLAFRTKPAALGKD
Protocol: (§1) In order to measure the binding affinities of the interleukin-2 analogs obtained in Example 4 for each of interleukin-2 alpha and beta receptors, surface plasmon resonance (SPR, BIACORE T200, GE Healthcare) was used. The binding affinities of the prepared analogs for the alpha and beta receptors were measured, and the binding affinity of each of the prepared analogs was compared with that of interleukin-2 analog 1 (aldesleukin).
(§2) First, an anti-human immunoglobulin antibody (Abcam, #ab97221) was immobilized to a CM5 chip (GE healthcare) to about 5,000 resonance unit (RU) through amine coupling, and then the interleukin-2 alpha receptor ([…], #4102H) or interleukin-2 beta receptor ([…], #4122H), to each of which a human immunoglobulin Fc region was linked, was bound to the immunoglobulin antibody using an antigen-antibody binding reaction and thus finally immobilized. Thereafter, the recombinant interleukin-2 analog prepared above was diluted with HBS-P+ buffer (Cytiva, BR100671) to various concentrations by serial dilution, and the diluted samples were allowed to flow through CM5 chips, to which the interleukin-2 receptors were finally immobilized, to measure the binding affinity of each interleukin-2 receptor. […] Upon the completion of the measurement, the binding affinity of the receptor was evaluated according to the 1:1 binding fitting model in the Biaevaluation program.

[3] = target: T1, interleukin-2 alpha receptor (SYMANSIS, …); test: as above
Protocol: as §1, §2

- binding result [1]: no binding
- Relative binding affinity (%) [2]: 156%
B1: interleukin-2 analog 20 (ligand)
chain: PTSSSTKKTQLQLEHLLLDLQMILNGINNYKNPKLTAMLTKKFYMPKKATELKHLQCLEEELKPLEEVLNLAQSKNFHLRPRDVVSNINVFVLELKGSETTFMCEYADETATIVEFLNRWITFSQSIISTLT

- binding result [1]: no binding
- Relative binding affinity (%) [2]: 691%
B8: interleukin-2 analog 53 (ligand)
chain: B1 chain with L79F, R80D, D83E, V84L, V85I

- binding result [1]: no binding
- Relative binding affinity (%) [2]: 3820%
B9: interleukin-2 analog 52 (ligand)
chain: B1 chain with L79F, R80D, V84L, V85I

- Relative binding affinity (%) [3]: 247%
- Relative binding affinity (%) [2]: 26800%
B12: interleukin-2 analog 105 (ligand)
chain: B1 chain with L17R, Q21E, A37R, K41F, E67D, L79F, R80E

- binding result [1]: no binding
- Relative binding affinity (%) [2]: 455%
B13: interleukin-2 analog 19 (ligand)
chain: B1 chain with R80D, V84L, V85I

- binding result [1]: no binding
- Relative binding affinity (%) [2]: 98.1%
B15: interleukin-2 analog 15 (ligand)
chain: B1 chain with D83E, V84L, V85I, F91I

- binding result [1]: no binding
- Relative binding affinity (%) [2]: 14100%
B20: interleukin-2 analog 21 (ligand)
chain: B1 chain with L79F, R80D

- binding result [1]: no binding
- Relative binding affinity (%) [2]: 166%
B23: interleukin-2 analog 12 (ligand)
chain: B1 chain with V84L, V85I, F91I

Continued, binder first:

B2: interleukin-2 analog 99 (ligand)
chain: B1 chain with K41F, L79F, R80E, V84L
- Relative binding affinity (%) [3]: 19.9%
- Relative binding affinity (%) [2]: 1510%

B3: interleukin-2 analog 91 (ligand)
chain: B1 chain with A37R, K41F, E60Q, L79F, R80E
- Relative binding affinity (%) [3]: 7.9%
- Relative binding affinity (%) [2]: 7360%

B4: interleukin-2 analog 92 (ligand)
chain: B1 chain with A37R, K41F, L79F, R80E, V90T
- Relative binding affinity (%) [3]: 97.3%
- Relative binding affinity (%) [2]: 1510%

B5: interleukin-2 analog 93 (ligand)
chain: B1 chain with A37R, K41F, L79F, R80E, D83E, V90T
- Relative binding affinity (%) [3]: 92.8%
- Relative binding affinity (%) [2]: 697%

B6: interleukin-2 analog 101 (ligand)
chain: B1 chain with A37R, K41F, L79F, R80E, V84L, V85A
- Relative binding affinity (%) [3]: 24.7%
- Relative binding affinity (%) [2]: 113%

B7: interleukin-2 analog 102 (ligand)
chain: B1 chain with A37R, K41F, L79F, R80E, F91I
- Relative binding affinity (%) [3]: 151%
- Relative binding affinity (%) [2]: 4450%

B10: interleukin-2 analog 100 (ligand)
chain: B1 chain with A37R, K41F, L79F, R80E, V84Y
- Relative binding affinity (%) [3]: 29.1%
- Relative binding affinity (%) [2]: 2530%

B11: interleukin-2 analog 88 (ligand)
chain: B1 chain with A37R, K41F, E60D, L79F, R80E
- Relative binding affinity (%) [3]: 102%
- Relative binding affinity (%) [2]: 13900%

B14: interleukin-2 analog 96 (ligand)
chain: B1 chain with A37R, K41F, V68G, Q73A, L79F, R80E
- Relative binding affinity (%) [3]: 14.9%
- Relative binding affinity (%) [2]: 229%

B16: interleukin-2 analog 97 (ligand)
chain: B1 chain with K41F, L79F, R80D, V84L, V85I
- Relative binding affinity (%) [3]: 18.8%
- Relative binding affinity (%) [2]: 3020%

B17: interleukin-2 analog 98 (ligand)
chain: B1 chain with K41F, L79F, R80E, V85I
- Relative binding affinity (%) [3]: 7.7%
- Relative binding affinity (%) [2]: 11100%

B18: interleukin-2 analog 103 (ligand)
chain: B1 chain with L17R, Q21E, K41F, L79F, R80E
- Relative binding affinity (%) [3]: 6.1%
- Relative binding affinity (%) [2]: 13100%

B19: interleukin-2 analog 35 (ligand)
chain: B1 chain with K41F, V84L, V85I, F91I, L93F, L95F
- Relative binding affinity (%) [3]: 31.7%
- Relative binding affinity (%) [2]: 233%

B21: interleukin-2 analog 104 (ligand)
chain: B1 chain with L17R, Q21E, A37R, K41F, E60D, L79F, R80E
- Relative binding affinity (%) [3]: 122%
- Relative binding affinity (%) [2]: 25400%

B22: interleukin-2 analog 95 (ligand)
chain: B1 chain with A37R, K41F, V68G, L79F, R80E
- Relative binding affinity (%) [3]: 10.7%
- Relative binding affinity (%) [2]: 17.1%

B24: interleukin-2 analog 17 (ligand)
chain: B1 chain with V84L, V85I, V90T, F91I
- Relative binding affinity (%) [3]: 29.6%
- Relative binding affinity (%) [2]: 9.4%
